Assay results published in the nanobody polyreactivity screen of Harvey et al. (2022).

Assay: yeast display, Sf9 membrane polyspecificity reagent, FACS + sequencing; frameworks hold sequencing errors
Summary of the method: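 A nanobody's polyreactivity label depends on the gate it was sorted from. Yeast display cells were stained with 10% biotinylated, detergent-solubilized Sf9 membrane reagent for 1 hour at 4 °C, enriched on streptavidin microbeads and sorted by FACS. The low and high (top ~1%) gates were set on anti-HA fluorescence for expression and streptavidin fluorescence for reagent binding.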

Sequence: QVQLVDSGGGLVQAGGSLRLSCAASGRIFGVNAMGWYRQAPGKERELVAAINFSGGGTYYADSVKGRFTISRDNAKNTVYLQMNSLKPEDTAVYYCAADGPDYKWYYELDYWGQGTQVTVSS
- polyreactivity (PSR sort gate): low polyreactivity

Sequence: QVQLVESGGGLVQAGGSLRLSCAASGIIFRGYPMGWYRQAPGKERELVARISITGGRTYYADSVKGRFTSSRDNAKNTVELQMNSLKPEDTAVYYCAAGKYVSTVRYDYWGQGTQVTVAS
- polyreactivity (PSR sort gate): high polyreactivity

Sequence: QVQLVESAGGLVQAGGSLRLSCAASGSIFGLYAMGWSRQAPGKDRELVAAITSAGSTYYADSVKGRFTISRDNAKNTVYLQMNTLKPEDTAVYYCAARGFYQFPSYYYWGKGTQVTVSS
- polyreactivity (PSR sort gate): high polyreactivity

Sequence: QVQLVESVGGLVQAGGSLRLSCAASGFTFLWYAMGWYRQAPGKEWELVAAINSSGVRTYYADSVKGRFTISRDNAKNTVYLLMNSLKPEDTAVYYCAAYQKTYTEDEYWGQGTQVTVSS
- polyreactivity (PSR sort gate): high polyreactivity

Sequence: QVQLVESGGGLVQAGGSLRLSCAASGFIFTYNAMGWYIQAPGKEREFVASISRSGGRTYYADSVKGRFTISRDNAKNTVYLQMNSLKPEDTAVYYCAARNAYVYGMDYWGQGTQVTVSS
- polyreactivity (PSR sort gate): low polyreactivity

Sequence: QVQLVESGGGLVQAGGSLLLSCAASGRIFAYYAMGWYRQAPGKERELVAGISQRGSRTYYADSVKGRFTISRDNAKNTVYLQMNSLKPEDTAVYYCAARDRRSVTMDYWGQGTQVTVSS
- polyreactivity (PSR sort gate): high polyreactivity

Sequence: QVQLVESGGGLVQAGGSLRLSCAASGSTFDFYAMAWYRQAPGKERELVADITSGGRTSYADSVKGRFTISRDNAKNTVYLQMNSLKPEDTAVYYCAALTRWYAWYDYWGQGTQVTVSS
- polyreactivity (PSR sort gate): high polyreactivity

Sequence: QVQLVESGGGLIQAGGSLRLRCAASGSTFPYYAMGWYRQAPGKEREFVAAIRFSGSSTYYADSVKGRFTISRDNAKNTVFLQMNRLIPEDTAVYYCATDYWLPSYSYDYWGQGTQVTVSS
- polyreactivity (PSR sort gate): low polyreactivity

Sequence: QVQLVESGGGLVQAGGSLRLSCAASGSIFGAYAMGRYRQAPGKERELVAAITSGGSTNYADSVKGRFTISRDNAKNTVYLQMNSLKPEDTADYYCAARRRYAKFRYDYWGQGTQVTVSS
- polyreactivity (PSR sort gate): high polyreactivity

Sequence: QVQLVESGGGIVQAGGSLRLSCAASGSTFYVYALGWYRQAPGKERELVAAINFNGGGTYYADSVKGRFTISRDNAKNTVYLQMNRLKPEDTAVYYCNAEDDYTYDRSFGGYKYDYWGQGTQVTVSS
- polyreactivity (PSR sort gate): low polyreactivity

Sequence: KVQLVESGGGLVQAGGSLRLSCAASGIFLDRNAMGWYRQAPGKERELVAAINSIGGSTYYADSVKGRFTISRDNAKNTVYLQMNSLKPEDTAVFYCAAPSTSSYYWGQGTQVTVSS
- polyreactivity (PSR sort gate): low polyreactivity

Sequence: QVQVVESGGGLVQAGGSLRLSCAASGSISSWYALGWYRPAAGYERELVADISSGVNTYYADSVKGRFTISRDNAKNTVYLQMNSLKTEDTAVYYCNAESLTFADPFYNYTYDYWGQGTQVTVSS
- polyreactivity (PSR sort gate): low polyreactivity

Sequence: QVQLVESGGGLVQAGGSLRLSCAASGRIFSHYAMGWYRQAPGKERELVAAITSDGSTNYADSVKGRFTISRDNAKNTVYLQMNSLKPEDTAVYYCADYDYWGQGTQVTVSS
- polyreactivity (PSR sort gate): low polyreactivity

Sequence: QVQLVESGGGLVQAGGSLRLSCAASGRIFRKYAMGWYRQAPGKERELVAGITWRGTSTYYADSVKGRFTISRDNAKNTVYLQMNSLKPEDTAVYYCAAEWKGYYVHDYWGQGTQVTVSS
- polyreactivity (PSR sort gate): high polyreactivity

Sequence: QVQLVESGGGLVHAGGSLRLSCAASGRTFSAYAMGWYRQAPGKERELVAAISRSGGRTYYADSVKGRFTISRDNAKNTVYLQMNSLKPEDTAVYYCNALNLPDNQGTYDYWGQGTQVTVSS
- polyreactivity (PSR sort gate): high polyreactivity

Sequence: QVQLVESGGGLVQAGGSLRLSCAASGSSFAGNAMGWYRQAPGKERELVAAIDSSTGSTYYADSVKGRFTISRDNAKNTVYLQMNSLKPEDTAVYYCNKTSFLVKLDYWGQGTQVTLSS
- polyreactivity (PSR sort gate): low polyreactivity

Sequence: QVQLVESGGGLVQAGGSLRLSCAASGITFVRYAMGWYRQAPGKERELVAVISRGGITNYADSVKGRFTISRDNAKNSVYLQMNSLKAEDTAVYYCAVRVRSNVRTYDYWGQGTQVTVSS
- polyreactivity (PSR sort gate): high polyreactivity

Sequence: QVQLVESGGGLVQAGGSLRLSCAASGRIFRYNAMGWYRQAPGKERELVAAISTSGTRTFYADSVKGRFTISRDNAKNTVYLQMNSLKPEDTAVYYCNKVAGPGKLGTYYYWGQGTQVTVSS
- polyreactivity (PSR sort gate): high polyreactivity

Sequence: QVQLVESGGGLVQAGGSLRLSCDASGSIFIYYAMGWYRQAPGKERELVAAIDYSGDSTYYADSVKGRFTISRDNAKNTVYGQMNSLKPEDTAVYYCARRGFLVHWPRPSYDYWGQGTQVTVSS
- polyreactivity (PSR sort gate): low polyreactivity

Sequence: QVQLQESGGGLVQAGGSLLSCAASGTISYYREMGWYRQAPGKERELDAGIGVGTITSYADSVKGRFTISRDNAKNTVYLQMNSLKPEDTAVYYCAAHIDGNDSHAYWGQGTQVTVSC
- polyreactivity (PSR sort gate): low polyreactivity

Sequence: QVQLVESGGGLVQAGGSLRLSCAASGRTFYQYAMGWYRQAPGKERELVAAISRSGTSTYYADSVKGRFTISRDNAKITVYLQMNSLKPEDTAVYYCATSTGRGYSWGQGTQVTVSS
- polyreactivity (PSR sort gate): high polyreactivity

Sequence: QVQLVESGGGLVQAGGSLRLSCAASGITIYYNAMGWYRQAPGKARELVAAITQSGGSTFYADSVKGRFTISRDNAKNTVYLQMNSLKPEDTAVYYWGQGTQVTVSS
- polyreactivity (PSR sort gate): low polyreactivity

Sequence: QVQLVESGGGLVQAGGSLRLSCAASGFTFTDYAMGWYRQAPGKERELVAAIYGIGGSTYYADSVKGRFTISRDNAKITVYLKMKSLKPEDTAVYYWNAYRSFTGYDYDYWGQGTQVTVSS
- polyreactivity (PSR sort gate): high polyreactivity

Sequence: QVQVVESGGGLVQAGGSLRLSCAASGSIFATYAMGWYRQAPGKERELVAAITSSDGSTNYADSVKGRFTISRDNAKNTVYLQMNSLKPEDTAVYYCATDAPDRTDSDSGFDAGYDYWGQGTQVTLSS
- polyreactivity (PSR sort gate): low polyreactivity

Sequence: QGQLVESGGGLVQAGGSLRLSCAASGSTFTRYGMGWYRQAPGKERELVAAITTSGSSTYYADSVKGRFTISRDNAKNTVYLQMNSLKPEDTAVYYCAADWSSWGFDYWGQGTQVTVSS
- polyreactivity (PSR sort gate): low polyreactivity

Sequence: QVQLVESGGGLVQAGGSLRLSCAASGFTFPYYAMGWYRQAPGKERELVATISNGGNTYYADSVKGRFTISRDNAKNTVYLQMNSLKPEDTAVYYCNAVVWAWMGYWGQGTQVTVSS
- polyreactivity (PSR sort gate): high polyreactivity

Sequence: QVQLVESGGGLVQAGGSLRLSCADSGRTFFYNGMGWYRQAPGKERELVAAISGSGSRTYYADSVKGRFTISRDNAKNTVYLQMNSLKPEDTAVYYCAATRVISHYRFDYWGQGTQVTVSS
- polyreactivity (PSR sort gate): high polyreactivity

Sequence: QVQLVESGGGLVQAGGILRLSCAASGSTFGFNAMGWYRQAPGKERELVASITSGDSTYYADSVKGRFTISRDNAKNTVYLQMNSLKPEDTAVYYCAKVGGGGQAGDNPILSDYWGQGTQVTVSS
- polyreactivity (PSR sort gate): low polyreactivity

Sequence: QVQIVESVGGLVQAGGSLRLSCAASGRTFPYYAKGRYRQAPGKEREMVATISTADSTYYADSVKGRFTISRDNAKNTVYLQMNRLITEATEVYYCAKDRYTYWSVHAFRRLDYWGQGTQLTVSS
- polyreactivity (PSR sort gate): low polyreactivity

Sequence: QVQLVESGGGLVQAGGSLRLSCAASGFTFPRYAMGWYRQAPGKERELVAAISYSGGRTYYADSVKGRFTISRDNAKNTVYFQMNSLKPEDTAVYYFATEASTKRYDYWGQGTQVSVSS
- polyreactivity (PSR sort gate): high polyreactivity

Sequence: QVQLVESGGGLVQAGGSLRLSCAASGSIFSYNAMGWYRQAPGKERELVAAISRNGGRTYYADSVKGRFTISRDNAKNTVYLQMNSLKPEDTAVYYCNNAGYRAGTGSYDYWGQGTQVTVSS
- polyreactivity (PSR sort gate): high polyreactivity

Sequence: QVQLVESGGGLVQAGGSLRLICAASGSTILVYAMGCYRQAPWKEMELVAAITQIDGSTYYADSVKGRFTISRDNAKNTVYLQMNSLKPEDTAVFYCAARFFWTYEYDYWGQATQVTVSS
- polyreactivity (PSR sort gate): low polyreactivity

Sequence: QVQLVESGGGVVQAGGSLRLSCAASGSTFGHNAMGWYRQAPGKERELVAVITSGGSTYYADSVKGRFTISRDNAKNTVYLQMNSLKPEDTAVYFCATDGGNSATVRYVASDYWGQGTQVTVSS
- polyreactivity (PSR sort gate): high polyreactivity

Sequence: QDQLVESGGGLVQAGGSLRLSCAASGLTFYSNTMGWYRQAPGKERELVAGISWGGDTTYYADSVKGRFTISRDNAKNTVYLQMNSLKPEDTAVYYCAADRSYWRHRYSYDYWGQGTQVTVSS
- polyreactivity (PSR sort gate): low polyreactivity

Sequence: QVQLVESGGGLVQAGGSLRFSCAASGSTFGTYAMGWYRQAPGKERELVAAISWSGGSTYYADSVKGRFTISRDNAKNTVYLQMNSLKPEDPAVYWGQGTQVTVSS
- polyreactivity (PSR sort gate): low polyreactivity

Sequence: QVQLVDSGAGLVQAGGSLRLSCAASGRIFYSYAMGWYRQAPGKDRELVARITRGSSTYYADSVKGRFTISRDNAKNTVYLQMNSLKPEDTAVYYCAKSRYTALTNHWSHDYWGQVTQVTVSS
- polyreactivity (PSR sort gate): low polyreactivity

Sequence: QVQLVESGGGLVQAGGSLRLSCAASGSIFWQTPMGWYRQAPGKERELVAAITRSGGSTYYADSVKGRFTISRDNAKITVYLQMNSLKPEDTLVYYCKKYGYKGGVGDDYWGQGTQVTVSS
- polyreactivity (PSR sort gate): high polyreactivity

Sequence: QVQLVESVGGLVQAGGSLRLICAASGYTFSRNAMGWYRPAPGKERELVAVISSGGSTYYADSVKGRFTISRDNAKNTVYLQMNSLKPEDTAVYYCNTGVYRYGYWYDYWGQGTQVTVSS
- polyreactivity (PSR sort gate): high polyreactivity

Sequence: QVQLVESGGGLVQAGGSLRLSCASSGPTFNEYAMAWYRQAPRKERELVARITRGGSTYYADSVKGRFTISRDNAKNTFYFQINSLIPEDTAVYEFAADLSLLYGGYWITDYDYWVQGTQVTVSS
- polyreactivity (PSR sort gate): low polyreactivity

Sequence: HVQLVESGGGLVQAGGSLRLSCAASGRTFYRYAKGWYRQAPGKEREFVAAISRSGGSTYYAVSVKGRFTISRDNAKNTVYLQMNSLKPEDTAVFYSNKYYWYPYGRAHDYGYWGQGTQVTVSS
- polyreactivity (PSR sort gate): high polyreactivity

Sequence: QVQLVESGGGLVQAGGSLRLSCAASGFIFVKNAMGWYRQAPGKERELVAVISTRGGRTYYADSVKGRFTISRDNAKNTVYLQMNSMKPEDTAVYYCAAGDQYKTRRNGYGYWGQGTQVTVSS
- polyreactivity (PSR sort gate): high polyreactivity

Sequence: QVQLVESGGGLVHAGGSLRLSCAASGRTFWTYAMGWYRQAPGKERELVAAISSGGSTYYADSVKGRFTISRDNAKNTVYLQMNSLKPEDTAVYYCATRVYGGYGYWGQGTQVTVSS
- polyreactivity (PSR sort gate): high polyreactivity

Sequence: QLQLVESGGGLVQAGGSLRLSCAASGITFQWYAMGWYRQAPGKERELVARISSGGSTNYADSVKGRFTISCDNAKYTVYLQMNSVKPEDTAVYYCNARYFWFDYWGQGTQVTVSS
- polyreactivity (PSR sort gate): high polyreactivity
